Data as given in patent US20150065381A1.
Several values for one entry are separate records, joined by “and”; a condition that tells them apart may be missing. Identical values can stand only once.

Key:
[1] = molecular target: BG505 envelope (gp120 monomer released from lysed pseudovirus) (HIV-1); assay: antigen capture ELISA, mAb 7.5 ug/ml, plate 1
[2] = molecular target: aMLV envelope (from lysed pseudovirus); assay: antigen capture ELISA, mAb 7.5 ug/ml, plate 1
[3] = molecular target: HIV-1 envelope of gp160 clone B-Chronic-014.c02 (HIV-1); assay: capture ELISA, plate 2, mAb 0.8 ug/ml
[4] = molecular target: HIV-1 envelope of gp160 clone B-Acute-009-c08 (HIV-1); assay: capture ELISA, plate 2, mAb 0.8 ug/ml
[5] = molecular target: HIV-1 envelope clone BF-002.c08 (multiclade gp160 clone panel) (HIV-1); assay: capture ELISA, plate 2, mAb 0.8 ug/ml
[6] = molecular target: HIV-1 envelope of gp160 clone AG-010.c14 (HIV-1); assay: capture ELISA, plate 2, mAb 0.8 ug/ml
[7] = molecular target: HIV-1 envelope of gp160 clone B-Acute-009-c08 (HIV-1); assay: capture ELISA, plate 1, mAb 2.5 ug/ml
[8] = molecular target: HIV-1 envelope clone BF-002.c08 (multiclade gp160 clone panel) (HIV-1); assay: capture ELISA, plate 1, mAb 2.5 ug/ml
[9] = molecular target: HIV-1 envelope clone G-011.c02 (multiclade gp160 clone panel) (HIV-1); assay: capture ELISA, plate 1, mAb 2.5 ug/ml
[10] = molecular target: HIV-1 envelope clone BF-002.c05 (multiclade gp160 clone panel) (HIV-1); assay: capture ELISA, plate 1, mAb 2.5 ug/ml
[11] = molecular target: BG505 envelope (gp120 monomer released from lysed pseudovirus) (HIV-1); assay: antigen capture ELISA, mAb 0.8 ug/ml, plate 1
[12] = molecular target: aMLV envelope (from lysed pseudovirus); assay: antigen capture ELISA, mAb 0.8 ug/ml, plate 1
[13] = molecular target: HIV-1 envelope of gp160 clone B-Chronic-014.c02 (HIV-1); assay: capture ELISA, plate 2, mAb 2.5 ug/ml
[14] = molecular target: HIV-1 envelope clone F1-002.c11 (multiclade gp160 clone panel) (HIV-1); assay: capture ELISA, plate 2, mAb 2.5 ug/ml
[15] = molecular target: HIV-1 envelope of gp160 clone B-Acute-008.c11 (HIV-1); assay: capture ELISA, plate 2, mAb 2.5 ug/ml
[16] = molecular target: HIV-1 envelope of gp160 clone AG-010.c11 (HIV-1); assay: capture ELISA, plate 2, mAb 2.5 ug/ml
[17] = molecular target: HIV-1 envelope of gp160 clone B-Acute-009-c08 (HIV-1); assay: capture ELISA, plate 2, mAb 2.5 ug/ml
[18] = molecular target: HIV-1 envelope of gp160 clone B-Acute-010.c08 (HIV-1); assay: capture ELISA, plate 2, mAb 2.5 ug/ml
[19] = molecular target: HIV-1 envelope clone F1-002.c16 (multiclade gp160 clone panel) (HIV-1); assay: capture ELISA, plate 2, mAb 2.5 ug/ml
[20] = molecular target: HIV-1 envelope clone G-011.c05 (multiclade gp160 clone panel) (HIV-1); assay: capture ELISA, plate 2, mAb 2.5 ug/ml
[21] = molecular target: HIV-1 envelope clone BF-002.c08 (multiclade gp160 clone panel) (HIV-1); assay: capture ELISA, plate 2, mAb 2.5 ug/ml
[22] = molecular target: HIV-1 JRCSF envelope (HIV-1) (UniProt P20871); assay: capture ELISA, plate 2, mAb 2.5 ug/ml
[23] = molecular target: HIV-1 envelope clone G-011.c02 (multiclade gp160 clone panel) (HIV-1); assay: capture ELISA, plate 2, mAb 2.5 ug/ml
[24] = molecular target: HIV-1 envelope of gp160 clone B-Acute-010.c09 (HIV-1); assay: capture ELISA, plate 2, mAb 2.5 ug/ml
[25] = molecular target: HIV-1 envelope of gp160 clone AG-010.c14 (HIV-1); assay: capture ELISA, plate 2, mAb 2.5 ug/ml
[26] = molecular target: HIV-1 envelope clone BF-002.c05 (multiclade gp160 clone panel) (HIV-1); assay: capture ELISA, plate 2, mAb 2.5 ug/ml
[27] = molecular target: BG505 envelope (gp120 monomer released from lysed pseudovirus) (HIV-1); assay: antigen capture ELISA, mAb 7.5 ug/ml, plate 2
[28] = molecular target: aMLV envelope (from lysed pseudovirus); assay: antigen capture ELISA, mAb 7.5 ug/ml, plate 2
[29] = molecular target: HIV-1 JRFL envelope (HIV-1); assay: capture ELISA, plate 2, mAb 0.8 ug/ml
[30] = molecular target: HIV-1 envelope of gp160 clone B-Chronic-014.c02 (HIV-1); assay: capture ELISA, original data
[31] = molecular target: HIV-1 envelope of gp160 clone B-Acute-008.c11 (HIV-1); assay: capture ELISA, original data
[32] = molecular target: HIV-1 envelope of gp160 clone AG-010.c11 (HIV-1); assay: capture ELISA, original data
[33] = molecular target: HIV-1 envelope of gp160 clone B-Acute-010.c08 (HIV-1); assay: capture ELISA, original data
[34] = molecular target: HIV-1 envelope clone G-011.c05 (multiclade gp160 clone panel) (HIV-1); assay: capture ELISA, original data
[35] = molecular target: HIV-1 envelope clone G-011.c02 (multiclade gp160 clone panel) (HIV-1); assay: capture ELISA, original data
[36] = molecular target: HIV-1 envelope of gp160 clone B-Acute-010.c09 (HIV-1); assay: capture ELISA, original data
[37] = molecular target: HIV-1 envelope of gp160 clone AG-010.c14 (HIV-1); assay: capture ELISA, original data
[38] = molecular target: HIV-1 JRFL envelope (HIV-1); assay: capture ELISA, plate 2, mAb 2.5 ug/ml
[39] = molecular target: HIV-1 16055 envelope (HIV-1); assay: capture ELISA, plate 2, mAb 2.5 ug/ml

| Substance | ELISA OD [1] | ELISA OD [2] | ELISA OD [3] | ELISA OD [4] | ELISA OD [6] | ELISA OD [7] | ELISA OD [9] | ELISA OD [11] | ELISA OD [12] | ELISA OD [13] | ELISA OD [15] | ELISA OD [16] | ELISA OD [17] | ELISA OD [18] | ELISA OD [20] | ELISA OD [22] | ELISA OD [23] | ELISA OD [24] | ELISA OD [25] | ELISA OD [27] | other results |
| --- | --- | --- | --- | --- | --- | --- | --- | --- | --- | --- | --- | --- | --- | --- | --- | --- | --- | --- | --- | --- | --- |
| PG16 (antibody) | 0.12 OD | 0.103 OD and 0.072 OD | 0.318 OD | 0.058 OD | 0.51 OD | 0.074 OD | 0.065 OD | 0.165 OD | 0.073 OD and 0.056 OD | 0.374 OD | 0.267 OD | 0.272 OD | 0.07 OD | 0.171 OD | 0.126 OD | 0.172 OD and 0.21 OD | 0.07 OD | 0.155 OD | 0.686 OD | 0.12 OD | ELISA OD [5]: 0.103 OD; ELISA OD [8]: 0.146 OD; ELISA OD [10]: 0.639 OD; ELISA OD [14]: 0.121 OD; ELISA OD [19]: 0.349 OD; ELISA OD [21]: 0.108 OD; ELISA OD [26]: 0.927 OD; ELISA OD [28]: 0.102 OD and 0.081 OD |
| PGT145 (antibody) | 0.104 OD | 0.098 OD and 0.082 OD | 0.059 OD | 0.178 OD | 0.074 OD | 0.078 OD | 0.068 OD | 0.066 OD | 0.056 OD and 0.073 OD | 0.066 OD | 0.103 OD | 0.08 OD | 0.11 OD | 0.316 OD | 0.119 OD | 0.173 OD and 0.086 OD | 0.07 OD | 0.074 OD | 0.076 OD | 0.104 OD | ELISA OD [29]: 0.062 OD and 0.054 OD; ELISA OD [5]: 0.057 OD; ELISA OD [8]: 0.066 OD; ELISA OD [10]: 0.22 OD; ELISA OD [30]: 0.077 OD; ELISA OD [31]: 0.178 OD; ELISA OD [32]: 0.101 OD; ELISA OD [33]: 0.211 OD; ELISA OD (original data) [34]: 0.301 OD; ELISA OD (original data) [35]: 0.077 OD; ELISA OD [36]: 0.075 OD; ELISA OD [37]: 0.081 OD; ELISA OD [14]: 0.072 OD; ELISA OD [19]: 0.456 OD; ELISA OD [38]: 0.075 OD and 0.058 OD; ELISA OD [21]: 0.073 OD; ELISA OD [39]: 0.079 OD and 0.067 OD; ELISA OD [26]: 0.297 OD; ELISA OD [28]: 0.108 OD and 0.079 OD |
| PG9 (antibody) | 0.428 OD | 0.084 OD and 0.072 OD | 0.768 OD | 0.062 OD | 0.528 OD | 0.095 OD | 0.068 OD | 0.261 OD | 0.091 OD and 0.06 OD | 0.986 OD | 0.168 OD | 0.597 OD | 0.07 OD | 0.278 OD | 0.161 OD | 0.177 OD and 0.186 OD | 0.052 OD | 0.106 OD | 0.834 OD | 0.428 OD | ELISA OD [29]: 0.06 OD and 0.05 OD; ELISA OD [30]: 2.42 OD; ELISA OD [31]: 0.75 OD; ELISA OD [32]: 1.06 OD; ELISA OD [33]: 0.547 OD; ELISA OD (original data) [34]: 1.25 OD; ELISA OD (original data) [35]: 0.068 OD; ELISA OD [36]: 0.685 OD; ELISA OD [37]: 3.69 OD; ELISA OD [38]: 0.058 OD and 0.051 OD; ELISA OD [39]: 0.225 OD and 0.219 OD; ELISA OD [28]: 0.079 OD and 0.071 OD |
| PGV04 (antibody) | 1.37 OD | 0.092 OD and 0.074 OD | 3.37 OD | 0.095 OD | 0.169 OD | 0.123 OD | 0.601 OD | 0.745 OD | 0.053 OD and 0.117 OD | 4 OD | 0.078 OD | 0.151 OD | 0.155 OD | 1.57 OD | 0.288 OD | 1.87 OD and 2.17 OD | 0.712 OD | 2.1 OD | 0.283 OD | 1.37 OD | ELISA OD [5]: 1.37 OD; ELISA OD [8]: 2.2 OD; ELISA OD [10]: 4 OD; ELISA OD [14]: 0.156 OD; ELISA OD [19]: 0.303 OD; ELISA OD [21]: 2.79 OD; ELISA OD [26]: 4 OD; ELISA OD [28]: 0.123 OD |
| PGT151 (antibody) | 0.094 OD | 0.098 OD and 0.075 OD | 0.2 OD | 0.082 OD | 0.131 OD | 0.076 OD | 0.067 OD | 0.054 OD | 0.054 OD and 0.05 OD | 0.203 OD | 0.266 OD | 0.08 OD | 0.128 OD | 0.148 OD | 0.086 OD | 0.078 OD and 0.068 OD | 0.113 OD | 0.095 OD | 0.149 OD | 0.094 OD | ELISA OD [29]: 0.077 OD and 0.054 OD; ELISA OD [5]: 0.054 OD; ELISA OD [8]: 0.062 OD; ELISA OD [10]: 0.148 OD; ELISA OD [30]: 0.247 OD; ELISA OD [31]: 0.321 OD; ELISA OD [32]: 0.119 OD; ELISA OD [33]: 0.211 OD; ELISA OD (original data) [34]: 0.145 OD; ELISA OD (original data) [35]: 0.086 OD; ELISA OD [36]: 0.092 OD; ELISA OD [37]: 0.522 OD; ELISA OD [14]: 0.115 OD; ELISA OD [19]: 0.114 OD; ELISA OD [38]: 0.098 OD and 0.072 OD; ELISA OD [21]: 0.067 OD; ELISA OD [39]: 0.082 OD and 0.076 OD; ELISA OD [26]: 0.174 OD; ELISA OD [28]: 0.114 OD and 0.116 OD |
